Laboratory results from PMC7435863, “Single Residue Substitution at N-Terminal Affects Temperature Stability and Activity of L2 Lipase” (Molecules, 2020).

B1: wt-L2 lipase (Bacillus sp. L2) (protein)
chain: ASLRANDAPIVLLHGFTGWGREEMFGFKYWGGVRGDIEQWLNDNGYRTYTLAVGPLSSNWDRACEAYAQLVGGTVDYGAAHAAKHGHARFGRTYPGLLPELKRGGRIHIIAHSQGGQTARMLVSLLENGSQEEREYAKAHNVSLSPLFEGGHHFVLSVTTIATPHDGTTLVNMVDFTDRFFDLQKAVLEAAAVASNVPYTSQVYDFKLDQWGLRRQPGESFDHYFERLKRSPVWTSTDTARYDLSVSGAEKLNQWVQASPNTYYLSFSTERTYRGALTGNHYPELGMNAFSAVVCAPFLGSYRNPTLGIDDRWLENDGIVNTVSMNGPKRGSSDRIVPYDGTLKKGVWNDMGTYNVDHLEIIGVDPNPSFDIRAFYLRLAEQLASLLP
notes: recombinant from pET32(B)+ in E. coli BL21(DE3), Ni Sepharose purified
B2: wt-L2 lipase (Bacillus sp. L2; A36V) (protein)
chain: ASLRANDVPIVLLHGFTGWGREEMFGFKYWGGVRGDIEQWLNDNGYRTYTLAVGPLSSNWDRACEAYAQLVGGTVDYGAAHAAKHGHARFGRTYPGLLPELKRGGRIHIIAHSQGGQTARMLVSLLENGSQEEREYAKAHNVSLSPLFEGGHHFVLSVTTIATPHDGTTLVNMVDFTDRFFDLQKAVLEAAAVASNVPYTSQVYDFKLDQWGLRRQPGESFDHYFERLKRSPVWTSTDTARYDLSVSGAEKLNQWVQASPNTYYLSFSTERTYRGALTGNHYPELGMNAFSAVVCAPFLGSYRNPTLGIDDRWLENDGIVNTVSMNGPKRGSSDRIVPYDGTLKKGVWNDMGTYNVDHLEIIGVDPNPSFDIRAFYLRLAEQLASLLP
notes: as for B1
B3: wt-L2 lipase (Bacillus sp. L2; A36P) (protein)
chain: ASLRANDPPIVLLHGFTGWGREEMFGFKYWGGVRGDIEQWLNDNGYRTYTLAVGPLSSNWDRACEAYAQLVGGTVDYGAAHAAKHGHARFGRTYPGLLPELKRGGRIHIIAHSQGGQTARMLVSLLENGSQEEREYAKAHNVSLSPLFEGGHHFVLSVTTIATPHDGTTLVNMVDFTDRFFDLQKAVLEAAAVASNVPYTSQVYDFKLDQWGLRRQPGESFDHYFERLKRSPVWTSTDTARYDLSVSGAEKLNQWVQASPNTYYLSFSTERTYRGALTGNHYPELGMNAFSAVVCAPFLGSYRNPTLGIDDRWLENDGIVNTVSMNGPKRGSSDRIVPYDGTLKKGVWNDMGTYNVDHLEIIGVDPNPSFDIRAFYLRLAEQLASLLP
notes: as for B1
B4: wt-L2 lipase (Bacillus sp. L2; A36E) (protein)
chain: ASLRANDEPIVLLHGFTGWGREEMFGFKYWGGVRGDIEQWLNDNGYRTYTLAVGPLSSNWDRACEAYAQLVGGTVDYGAAHAAKHGHARFGRTYPGLLPELKRGGRIHIIAHSQGGQTARMLVSLLENGSQEEREYAKAHNVSLSPLFEGGHHFVLSVTTIATPHDGTTLVNMVDFTDRFFDLQKAVLEAAAVASNVPYTSQVYDFKLDQWGLRRQPGESFDHYFERLKRSPVWTSTDTARYDLSVSGAEKLNQWVQASPNTYYLSFSTERTYRGALTGNHYPELGMNAFSAVVCAPFLGSYRNPTLGIDDRWLENDGIVNTVSMNGPKRGSSDRIVPYDGTLKKGVWNDMGTYNVDHLEIIGVDPNPSFDIRAFYLRLAEQLASLLP
notes: as for B1

What follows are proteins tested on CCCCCCCCCC(=O)Oc1ccc([N+](=O)[O-])cc1 (assay: pNP ester hydrolysis, Lineweaver-Burk). Conditions: 70 °C (optimum temperature), 0.6-5.0 mM substrate.
Format: biochemical, Bacillus sp. L2
From the text: pNP ester hydrolysis, Lineweaver-Burk on wt-L2 lipase
Work on B1 yielded a Km of 1080 µM, a kcat of 175 s⁻¹ and a kcat/Km of 162000 M⁻¹ s⁻¹.
Work on B2 yielded a Km of 520 µM, a Vmax of 81300 µM/min and a kcat of 136 s⁻¹. It also gave a kcat/Km of 207000 M⁻¹ s⁻¹.
Work on B3 yielded a Km of 1340 µM, a Vmax of 76300 µM/min and a kcat of 127 s⁻¹. It also gave a kcat/Km of 94900 M⁻¹ s⁻¹.
For B4, the Km was 4380 µM, the Vmax was 71900 µM/min and the kcat was 120 s⁻¹. For the same protein, the kcat/Km was 27200 M⁻¹ s⁻¹.
